Laboratory results reported in patent publication US7829301B2, “Screening assays for binding antagonists of the AMD-associated variant of factor H (H384)” (The University of Manchester, priority 2006, dated 2010).
Positions count from the first letter of the chain named.

B1: FHCCP6-8(H384): recombinant protein of Factor H CCPs 6-8, H384 allotype, with N-terminal non-authentic glycine (SEQ ID NO: 1) (protein, listed as Homo sapiens)
chain: MGTLKPCDYPDIKHGGLYHENMRRPYFPVAVGKYYSYYCDEHFETPSGSYWDHIHCTQDGWSPAVPCLRKCYFPYLENGYNQNHGRKFVQGKSIDVACHPGYALPKAQTTVTCMENGWSPTPRCIRVKTCSKSSIDIENGFISESQYTYALKEKAKYQCKLGYVTADGETSGSITCGKDGWSAQPTCI
modifications: VARIANT (1)...(188) Protein sequence of the FHCCP6-8 (H384) construct
B2: FHCCP6-8(Y384): recombinant Factor H CCPs 6-8, Y384 variant obtained by site-directed mutagenesis (SEQ ID NO: 3) (protein, listed as Homo sapiens)
chain: B1 chain with H84Y
modifications: VARIANT (1)...(188) FHCCP6-8 (Y384 allotype of mature Factor H)

What was measured:
[1] = Heparin affinity chromatography on HiTrap Heparin column; format: binding; settings: pH 7.3; linear salt gradient 130 mM to 1 M NaCl
Procedure: The heparin-binding properties of H384 and Y384 variants of FHCCP6-8 were compared to full-length human factor H by affinity chromatography on a HiTrap Heparin column (Amersham Biosciences) or a ‘home-made’ column in which 20 mg 4IS was coupled to 1.5-ml CNBr-activated Sepharose (Sigma) in 0.1 M NaHCO3, 0.5 M NaCl, pH 8.3 using the manufacturer's protocol. The 1-ml HiTrap column and ˜1-ml 4IS-column were equilibrated in 20 mM HEPES, 130 mM NaCl, 1 mM EDTA, pH 7.3. Protein (200 μg recombinant proteins; 100 μg full-length factor H) was loaded onto the columns (in 1 ml equilibration buffer) and any unbound material was removed with 5 column volumes of the same buffer and collected in 1-ml fractions. Protein was eluted from the columns using a linear salt gradient of 130 mM to 1 M NaCl over 20 min by mixing 20 mM HEPES, 1 M NaCl, 1 mM EDTA, pH 7.3 with the equilibration buffer at a flow rate of 1 ml/min.
This approach was also used to determine the relative heparin-binding activities of K370A, R386A and K387A mutants, where 200 μg of protein was loaded individually onto the HiTrap column.

[2] = Microtitre plate assay: biotinylated proteins binding to immobilized dermatan sulphate; parameters: species or system porcine; settings: biotinylated proteins 0-10 pmol/well
Source text: The heparin/HS/DS-binding activities of the FHCCP6-8(H384) and FHCCP6-8(Y384) variants (using biotinylated-FHCCP6-8 constructs), and in some cases full-length Factor H (detected with an antibody), were compared using an assay where the glycosaminoglycans (GAGs) were immobilized on allylamine-coated EpranEx plates (Mahoney et al (2004) Anal. Biochem. 330, 123-129), kindly supplied by Plasso Technology Ltd., Sheffield, UK. Previously, we have shown that heparin/HS can bind non-covalently to surfaces plasma polymerized with allylamine in such a way that these GAGs can still associate with a wide-range of proteins (Mahoney et al. (2005) J. Biol. Chem. 280, 27044-27055; Mahoney et al. (2004) ibid).
The following GAG preparations were analyzed: unfractionated heparins corresponding to the 2nd, 4th and 5th International Standards (denoted here as 2IS, 4IS and 5IS, respectively (Mulloy et al. (2000) Thromb. Haemost. 52, 148-153)); enoxaparin, dalteparin and LMr heparin from Sigma (Cat. No. H3400); selectively desulfated heparins prepared from 2IS heparin as described in Mulloy et al. (1994) Carbohydr. […]
In the case of the biotinylated FHCCP6-8(H384) and FHCCP6-8(Y384) constructs, bound material was detected by adding 200 μl/well of a 1:10,000 dilution of ExtrAvidin alkaline phosphatase (Sigma, Cat. No. E-2636) for 30 minutes. […]

[3] = Biotinylated bovine HS plate assay; format: binding; settings: proteins immobilised at 1 μg/well
Procedure: The HS binding properties of FHCCP6-8(H384), FHCCP6-8(Y384) and full length Factor H were further tested using biotinylated bovine kidney heparan sulphate (Sigma) where the proteins were coated onto the wells of a Maxisorp microtitre plate (NUNC) at 1 μg/well in PBS (Oxoid; 137 mM NaCl, 2.6 mM KCl, 8.2 mM Na2HPO4, 1.5 mM KH2PO4, pH 7.3) overnight at room temperature. Link_TSG6 (denoted as L-TSG-6 in FIG. 9), a known HS-binding domain (see Mahoney et al. (2005) J. Biol. Chem. 280, 27044-27055) was immobilised at 1 μg/well as a positive control. Plates were blocked the next morning with 1% (w/v) BSA (Sigma, Cat. No. A-4503) in standard assay buffer (20 mM HEPES, 130 mM NaCl, 0.05% (v/v) Tween-20, pH 7.3) for 90 minutes at 37° C. The standard assay buffer was used for all subsequent incubations, dilutions and washes at room temperature. The biotinylated HS was incubated at various concentrations with the immobilised proteins for 4 hours. Bound material was detected by adding 200 μl/well of a 1:10,000 dilution of ExtrAvidin alkaline phosphatase (Sigma, Cat. No. E-2636) for 30 minutes. Plates were then developed with 200 μl/well of 1 mg/ml disodium p-nitrophenylphosphate (pNPP; Sigma) in 0.05 M Tris-HCl, 0.1 M NaCl, pH9.3, and developed for 40 minutes; the absorbance at 405 nm was measured and the signal from blank wells subtracted.

Molecule	NaCl concentration at elution from HiTrap heparin affinity column [1]	interaction with DS [2]	interaction with biotinylated bovine kidney HS [3]
B1	340 mM NaCl	interact with DS, albeit to a lesser degree than heparin	interact
B2	390 mM NaCl	interact with DS, albeit to a lesser degree than heparin	interact
